T1: Axl protein (human, UniProt P30530 26-451)
T1 construct: extracellular domain; also called human Axl; hAxl
T1 sequence (looked up): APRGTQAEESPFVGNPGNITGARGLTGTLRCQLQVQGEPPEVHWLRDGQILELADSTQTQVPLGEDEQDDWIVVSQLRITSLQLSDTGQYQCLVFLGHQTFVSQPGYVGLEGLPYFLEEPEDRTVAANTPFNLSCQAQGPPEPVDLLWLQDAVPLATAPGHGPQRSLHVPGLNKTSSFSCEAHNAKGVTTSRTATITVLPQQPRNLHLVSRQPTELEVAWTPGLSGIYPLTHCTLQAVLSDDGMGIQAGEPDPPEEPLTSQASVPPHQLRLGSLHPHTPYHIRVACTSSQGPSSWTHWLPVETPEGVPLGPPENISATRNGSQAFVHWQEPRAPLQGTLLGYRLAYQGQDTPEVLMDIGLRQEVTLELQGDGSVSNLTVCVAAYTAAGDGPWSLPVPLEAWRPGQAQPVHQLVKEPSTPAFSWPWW


Experiments:
Axl protein [1] = biological target: T1, Axl protein; test: ELISA, 1:9 dilution, pH 6.0 over pH 7.4
Axl protein [2] = biological target: T1, Axl protein; test: ELISA, 1:3 dilution, pH 6.0 over pH 7.4

| Binder | Affinity ELISA CPE mutant ratio (1:9, pH 6.0/7.4) (Axl protein [1]) [ratio] | Affinity ELISA CPE mutant ratio (1:3, pH 6.0/7.4) (Axl protein [2]) [ratio] |
| --- | --- | --- |
| HC-E102G (antibody, V domains shown) VH: EVQLVQSGAEVKKPGATVKISCKVSGYSFTGHTMNWIRQPPGKGLEWIGLIKPSNGGTSYNQKFKGRVTISADKSISTAYLQWSSLKASDTAMYYCAHGHYGSYFAMDYWGQGTLVTVSS VL: DIQMTQSPSSLSASVGDRVTITCKASQDVSSAVAWYQQKPGQAPRLLIYWASTRHTGVPSRFSGSGSGTEFTLTISSLQPDDFATYYCQEHFSTPLTFGQGTKVEIK | 2.68 | 1.8 |
| HC-A106Y (antibody, V domains shown) VH: EVQLVQSGAEVKKPGATVKISCKVSGYSFTGHTMNWIRQPPGKGLEWIGLIKPSNGGTSYNQKFKGRVTISADKSISTAYLQWSSLKASDTAMYYCAHGHYESYFYMDYWGQGTLVTVSS VL: DIQMTQSPSSLSASVGDRVTITCKASQDVSSAVAWYQQKPGQAPRLLIYWASTRHTGVPSRFSGSGSGTEFTLTISSLQPDDFATYYCQEHFSTPLTFGQGTKVEIK | 3.06 | 3.29 |
| HC-W110D (antibody, V domains shown) VH: EVQLVQSGAEVKKPGATVKISCKVSGYSFTGHTMNWIRQPPGKGLEWIGLIKPSNGGTSYNQKFKGRVTISADKSISTAYLQWSSLKASDTAMYYCAHGHYESYFAMDYDGQGTLVTVSS VL: DIQMTQSPSSLSASVGDRVTITCKASQDVSSAVAWYQQKPGQAPRLLIYWASTRHTGVPSRFSGSGSGTEFTLTISSLQPDDFATYYCQEHFSTPLTFGQGTKVEIK | 1.11 | 3.72 |
| HC-M107E (antibody, V domains shown) VH: EVQLVQSGAEVKKPGATVKISCKVSGYSFTGHTMNWIRQPPGKGLEWIGLIKPSNGGTSYNQKFKGRVTISADKSISTAYLQWSSLKASDTAMYYCAHGHYESYFAEDYWGQGTLVTVSS VL: DIQMTQSPSSLSASVGDRVTITCKASQDVSSAVAWYQQKPGQAPRLLIYWASTRHTGVPSRFSGSGSGTEFTLTISSLQPDDFATYYCQEHFSTPLTFGQGTKVEIK | 1.36 | 2.16 |
| HC-M107F (antibody, V domains shown) VH: EVQLVQSGAEVKKPGATVKISCKVSGYSFTGHTMNWIRQPPGKGLEWIGLIKPSNGGTSYNQKFKGRVTISADKSISTAYLQWSSLKASDTAMYYCAHGHYESYFAFDYWGQGTLVTVSS VL: DIQMTQSPSSLSASVGDRVTITCKASQDVSSAVAWYQQKPGQAPRLLIYWASTRHTGVPSRFSGSGSGTEFTLTISSLQPDDFATYYCQEHFSTPLTFGQGTKVEIK | 1.09 | 20.6 |
| HC-W110L (antibody, V domains shown) VH: EVQLVQSGAEVKKPGATVKISCKVSGYSFTGHTMNWIRQPPGKGLEWIGLIKPSNGGTSYNQKFKGRVTISADKSISTAYLQWSSLKASDTAMYYCAHGHYESYFAMDYLGQGTLVTVSS VL: DIQMTQSPSSLSASVGDRVTITCKASQDVSSAVAWYQQKPGQAPRLLIYWASTRHTGVPSRFSGSGSGTEFTLTISSLQPDDFATYYCQEHFSTPLTFGQGTKVEIK | 0.924 | 8.22 |
| HC-G111H (antibody, V domains shown) VH: EVQLVQSGAEVKKPGATVKISCKVSGYSFTGHTMNWIRQPPGKGLEWIGLIKPSNGGTSYNQKFKGRVTISADKSISTAYLQWSSLKASDTAMYYCAHGHYESYFAMDYWHQGTLVTVSS VL: DIQMTQSPSSLSASVGDRVTITCKASQDVSSAVAWYQQKPGQAPRLLIYWASTRHTGVPSRFSGSGSGTEFTLTISSLQPDDFATYYCQEHFSTPLTFGQGTKVEIK | 1.79 | 1.06 |
| HC-A106G (antibody, V domains shown) VH: EVQLVQSGAEVKKPGATVKISCKVSGYSFTGHTMNWIRQPPGKGLEWIGLIKPSNGGTSYNQKFKGRVTISADKSISTAYLQWSSLKASDTAMYYCAHGHYESYFGMDYWGQGTLVTVSS VL: DIQMTQSPSSLSASVGDRVTITCKASQDVSSAVAWYQQKPGQAPRLLIYWASTRHTGVPSRFSGSGSGTEFTLTISSLQPDDFATYYCQEHFSTPLTFGQGTKVEIK | 2.2 | 1.52 |
| HC-A106L (antibody, V domains shown) VH: EVQLVQSGAEVKKPGATVKISCKVSGYSFTGHTMNWIRQPPGKGLEWIGLIKPSNGGTSYNQKFKGRVTISADKSISTAYLQWSSLKASDTAMYYCAHGHYESYFLMDYWGQGTLVTVSS VL: DIQMTQSPSSLSASVGDRVTITCKASQDVSSAVAWYQQKPGQAPRLLIYWASTRHTGVPSRFSGSGSGTEFTLTISSLQPDDFATYYCQEHFSTPLTFGQGTKVEIK | 1.61 | 21.5 |
| HC-E102M (antibody, V domains shown) VH: EVQLVQSGAEVKKPGATVKISCKVSGYSFTGHTMNWIRQPPGKGLEWIGLIKPSNGGTSYNQKFKGRVTISADKSISTAYLQWSSLKASDTAMYYCAHGHYMSYFAMDYWGQGTLVTVSS VL: DIQMTQSPSSLSASVGDRVTITCKASQDVSSAVAWYQQKPGQAPRLLIYWASTRHTGVPSRFSGSGSGTEFTLTISSLQPDDFATYYCQEHFSTPLTFGQGTKVEIK | 2.36 | 2.08 |
| HC-W110P (antibody, V domains shown) VH: EVQLVQSGAEVKKPGATVKISCKVSGYSFTGHTMNWIRQPPGKGLEWIGLIKPSNGGTSYNQKFKGRVTISADKSISTAYLQWSSLKASDTAMYYCAHGHYESYFAMDYPGQGTLVTVSS VL: DIQMTQSPSSLSASVGDRVTITCKASQDVSSAVAWYQQKPGQAPRLLIYWASTRHTGVPSRFSGSGSGTEFTLTISSLQPDDFATYYCQEHFSTPLTFGQGTKVEIK | 2.15 | 6.49 |
| HC-F105V (antibody, V domains shown) VH: EVQLVQSGAEVKKPGATVKISCKVSGYSFTGHTMNWIRQPPGKGLEWIGLIKPSNGGTSYNQKFKGRVTISADKSISTAYLQWSSLKASDTAMYYCAHGHYESYVAMDYWGQGTLVTVSS VL: DIQMTQSPSSLSASVGDRVTITCKASQDVSSAVAWYQQKPGQAPRLLIYWASTRHTGVPSRFSGSGSGTEFTLTISSLQPDDFATYYCQEHFSTPLTFGQGTKVEIK | 2.8 | 2.43 |
| HC-W110T (antibody, V domains shown) VH: EVQLVQSGAEVKKPGATVKISCKVSGYSFTGHTMNWIRQPPGKGLEWIGLIKPSNGGTSYNQKFKGRVTISADKSISTAYLQWSSLKASDTAMYYCAHGHYESYFAMDYTGQGTLVTVSS VL: DIQMTQSPSSLSASVGDRVTITCKASQDVSSAVAWYQQKPGQAPRLLIYWASTRHTGVPSRFSGSGSGTEFTLTISSLQPDDFATYYCQEHFSTPLTFGQGTKVEIK | 1.37 | 7.47 |
| HC-W110A (antibody, V domains shown) VH: EVQLVQSGAEVKKPGATVKISCKVSGYSFTGHTMNWIRQPPGKGLEWIGLIKPSNGGTSYNQKFKGRVTISADKSISTAYLQWSSLKASDTAMYYCAHGHYESYFAMDYAGQGTLVTVSS VL: DIQMTQSPSSLSASVGDRVTITCKASQDVSSAVAWYQQKPGQAPRLLIYWASTRHTGVPSRFSGSGSGTEFTLTISSLQPDDFATYYCQEHFSTPLTFGQGTKVEIK | 1.2 | 7.91 |
| HC-A106D (antibody, V domains shown) VH: EVQLVQSGAEVKKPGATVKISCKVSGYSFTGHTMNWIRQPPGKGLEWIGLIKPSNGGTSYNQKFKGRVTISADKSISTAYLQWSSLKASDTAMYYCAHGHYESYFDMDYWGQGTLVTVSS VL: DIQMTQSPSSLSASVGDRVTITCKASQDVSSAVAWYQQKPGQAPRLLIYWASTRHTGVPSRFSGSGSGTEFTLTISSLQPDDFATYYCQEHFSTPLTFGQGTKVEIK | 2.51 | 3.39 |
| HC-E102H (antibody, V domains shown) VH: EVQLVQSGAEVKKPGATVKISCKVSGYSFTGHTMNWIRQPPGKGLEWIGLIKPSNGGTSYNQKFKGRVTISADKSISTAYLQWSSLKASDTAMYYCAHGHYHSYFAMDYWGQGTLVTVSS VL: DIQMTQSPSSLSASVGDRVTITCKASQDVSSAVAWYQQKPGQAPRLLIYWASTRHTGVPSRFSGSGSGTEFTLTISSLQPDDFATYYCQEHFSTPLTFGQGTKVEIK | 2.31 | 2.08 |
| HC-W110R (antibody, V domains shown) VH: EVQLVQSGAEVKKPGATVKISCKVSGYSFTGHTMNWIRQPPGKGLEWIGLIKPSNGGTSYNQKFKGRVTISADKSISTAYLQWSSLKASDTAMYYCAHGHYESYFAMDYRGQGTLVTVSS VL: DIQMTQSPSSLSASVGDRVTITCKASQDVSSAVAWYQQKPGQAPRLLIYWASTRHTGVPSRFSGSGSGTEFTLTISSLQPDDFATYYCQEHFSTPLTFGQGTKVEIK | 1.06 | 5.99 |
| HC-W110N (antibody, V domains shown) VH: EVQLVQSGAEVKKPGATVKISCKVSGYSFTGHTMNWIRQPPGKGLEWIGLIKPSNGGTSYNQKFKGRVTISADKSISTAYLQWSSLKASDTAMYYCAHGHYESYFAMDYNGQGTLVTVSS VL: DIQMTQSPSSLSASVGDRVTITCKASQDVSSAVAWYQQKPGQAPRLLIYWASTRHTGVPSRFSGSGSGTEFTLTISSLQPDDFATYYCQEHFSTPLTFGQGTKVEIK | 0.8 | 4.3 |

Reference: US20190177417A1 (BIOATLA, published 2019)
